Positions count from the first letter of the chain named.
B1: fusion loop targeting pan-flavivirus antibody (4G2) (antibody, V domains shown)
VH: EVQLQQSGPELVKPGTSVKISCKTSGYTFTEYTIHWVKQSHGKSLAWIGGIDPNSGGTNYSPNFKGKATLTVDKSSSTAYMDLRSLSSEDSAVYFCARIYHYDGYFDVWGAGTAVTVSS
VL: DIKMTQSPSSMYASLGERVTITCKASQDINSYLTWFQQKPGKSPKTLIYRANRLIDGVPSRFSGSGSGQDYSLTISSLDYEDMGIYYCLQYDEFPPTFGGGTKLEIKR
B2: mAb 7 (antibody, V domains shown)
VH: EVQLLESGGGLVQPGGSLRLSCAASGFSFSTYSMHWVRQAPGKGLEWVSAISGEGDSAYYADSVKGRFEISRDNSKNTLYLQMNKVRAEDTAVYYCVGGYSNFYYYYTMDAWGQGTMVTVSS
VL: DIVMTQSPASLSLSPGERATLSCRATQSIVTFLAWYQQKPGQAPRLLIYDASTNASGIPARFSGSRSGTDFTLTITRLEPEDFAVYYCQQRYNWPPYSFGQGTKLEIK
notes: also called VH.2 / VL.4
B3: mAb 6 (antibody, V domains shown)
VH: EVQLVESGGGLVQPGGSLRLSCSASGFSFSTYSMHWVRQAPGKGLEYVSAITGEGDSAFYADSVKGRFTISRDNSKNTLYFEMNSLRPEDTAVYYCVGGYSNFYYYYTMDAWGQGTSVTVSS
VL: B2 VL with D1E, M4L, V30S, Q38H, N54R, I58V, T76S, R77S, L105V
notes: also called VH.3 / VL.1
B4: mAb 8 (antibody, V domains shown)
VH: B2 VH with E69T
VL: B2 VL with V30S, N54R
notes: also called VH.1 / VL.2

Experiments:
[1] = target: T1, Zika virus envelope protein (EP), strain ILM (Brazil Paraiba 2015), on whole virus (Zika virus)
T1 construct: also called Zika strain ILM

[2] = target: T1, Zika virus envelope protein (EP), …; assay: cell-based or functional assay

Row | Binder | Kd [1] [µg/mL] | PRNT50 (plaque reduction neutralization test on BHK-21 cells) [2] [µg/mL]
1 | B1 | 6.41 | 
2 | B2 | 5.21 | 
3 | B3 | 3.85 | 0.0597
4 | B4 | 19.3 | 5.12

— patent US10829545 (MIT, dated 2020)
